This is an account of results in paper PMC8163081 (Science Advances, 2021).

The target in one experiment is α-actinin-2 (human) (UniProt P35609). As to the kind of experiment: ITC.
The target of experiment [1] is hd-α-actinin-2 (human) (UniProt P35609). As to the kind of experiment: SEC-MALS.
Experiment [2] has the same target. Briefly: ITC.
The target in experiment [3] is T1, α-actinin-2 (human, UniProt P35609 1-894). As to the kind of experiment: SEC-MALS.
In experiment [4] the target is T1, α-actinin-2. As to the kind of experiment: ITC.
The target in experiment [5] is α-actinin-2-yellow fluorescent protein (YFP) (human, UniProt P35609 1-894). Briefly: FRET or BRET.
In experiment [6] the target is T1, α-actinin-2. Briefly: peptide or protein array.
For experiment [7], the target named is human (nonmuscle) α-actinin-1 (human, UniProt P12814 1-892). Briefly: SEC-MALS.
The target in a further experiment is rod-α-actinin-2 (human, UniProt P35609 274-746). Briefly: SEC-MALS.
Chain of rod-α-actinin-2 (P35609 274-746): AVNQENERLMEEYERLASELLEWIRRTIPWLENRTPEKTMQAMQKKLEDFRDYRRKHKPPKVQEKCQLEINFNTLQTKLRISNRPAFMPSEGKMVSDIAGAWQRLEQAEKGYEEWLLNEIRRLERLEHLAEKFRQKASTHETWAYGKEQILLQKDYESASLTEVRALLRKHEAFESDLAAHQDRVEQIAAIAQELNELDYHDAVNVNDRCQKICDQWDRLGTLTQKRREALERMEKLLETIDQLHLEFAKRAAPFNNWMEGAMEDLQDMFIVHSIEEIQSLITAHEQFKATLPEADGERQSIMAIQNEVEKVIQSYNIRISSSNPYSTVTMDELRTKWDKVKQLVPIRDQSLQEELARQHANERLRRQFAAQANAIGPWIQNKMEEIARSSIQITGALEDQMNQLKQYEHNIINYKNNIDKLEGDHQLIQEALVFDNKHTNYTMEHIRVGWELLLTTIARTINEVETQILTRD

T1 sequence (P35609 whole entry): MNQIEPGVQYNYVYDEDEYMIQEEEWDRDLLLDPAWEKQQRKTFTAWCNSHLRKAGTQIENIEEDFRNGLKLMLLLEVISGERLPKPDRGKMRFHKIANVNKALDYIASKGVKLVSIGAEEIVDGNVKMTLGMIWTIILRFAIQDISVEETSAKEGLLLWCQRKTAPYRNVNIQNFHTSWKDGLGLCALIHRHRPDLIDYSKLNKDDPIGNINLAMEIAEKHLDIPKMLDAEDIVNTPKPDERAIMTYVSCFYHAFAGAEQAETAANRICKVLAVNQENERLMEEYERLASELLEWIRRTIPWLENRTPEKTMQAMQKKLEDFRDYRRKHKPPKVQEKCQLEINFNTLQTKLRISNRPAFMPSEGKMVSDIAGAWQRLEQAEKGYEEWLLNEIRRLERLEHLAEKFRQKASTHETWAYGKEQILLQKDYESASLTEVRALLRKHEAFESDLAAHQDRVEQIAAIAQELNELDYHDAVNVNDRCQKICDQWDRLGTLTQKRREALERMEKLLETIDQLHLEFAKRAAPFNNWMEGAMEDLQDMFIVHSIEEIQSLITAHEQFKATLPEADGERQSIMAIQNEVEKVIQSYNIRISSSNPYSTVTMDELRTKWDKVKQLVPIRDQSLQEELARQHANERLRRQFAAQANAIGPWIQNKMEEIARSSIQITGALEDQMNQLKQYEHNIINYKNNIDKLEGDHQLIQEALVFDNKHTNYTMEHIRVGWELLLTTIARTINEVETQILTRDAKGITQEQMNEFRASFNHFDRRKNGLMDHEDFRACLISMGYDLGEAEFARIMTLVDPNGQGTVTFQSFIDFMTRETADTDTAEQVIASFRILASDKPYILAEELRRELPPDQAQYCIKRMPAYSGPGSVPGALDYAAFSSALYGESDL
Chain of α-actinin-2 (human) (P35609 whole entry): as above
Chain of hd-α-actinin-2 (human) (P35609 19-894): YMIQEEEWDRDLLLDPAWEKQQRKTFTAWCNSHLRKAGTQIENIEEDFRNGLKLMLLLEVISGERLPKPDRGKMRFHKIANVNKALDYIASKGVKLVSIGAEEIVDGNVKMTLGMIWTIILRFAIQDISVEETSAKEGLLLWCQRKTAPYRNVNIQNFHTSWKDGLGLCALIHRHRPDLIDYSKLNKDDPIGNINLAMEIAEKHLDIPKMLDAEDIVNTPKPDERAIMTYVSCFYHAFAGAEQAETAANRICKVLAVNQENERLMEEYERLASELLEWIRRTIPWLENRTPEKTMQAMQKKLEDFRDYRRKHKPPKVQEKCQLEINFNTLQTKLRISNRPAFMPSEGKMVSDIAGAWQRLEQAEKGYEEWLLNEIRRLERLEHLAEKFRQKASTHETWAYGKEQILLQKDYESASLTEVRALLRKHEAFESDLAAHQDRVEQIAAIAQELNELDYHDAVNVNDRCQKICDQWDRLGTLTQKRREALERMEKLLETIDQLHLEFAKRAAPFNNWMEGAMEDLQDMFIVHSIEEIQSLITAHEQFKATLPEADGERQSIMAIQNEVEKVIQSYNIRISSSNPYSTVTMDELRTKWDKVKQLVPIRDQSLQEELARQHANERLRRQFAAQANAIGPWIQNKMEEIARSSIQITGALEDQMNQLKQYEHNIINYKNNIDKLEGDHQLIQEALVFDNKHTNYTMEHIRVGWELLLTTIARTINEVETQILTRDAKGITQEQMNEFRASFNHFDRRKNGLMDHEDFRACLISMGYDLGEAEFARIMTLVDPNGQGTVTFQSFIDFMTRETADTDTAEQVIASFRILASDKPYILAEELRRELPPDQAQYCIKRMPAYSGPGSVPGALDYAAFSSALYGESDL
Chain of α-actinin-2-yellow fluorescent protein (YFP) (P35609 whole entry): as the sequence (P35609 whole entry) above
Chain of human (nonmuscle) α-actinin-1 (P12814 whole entry): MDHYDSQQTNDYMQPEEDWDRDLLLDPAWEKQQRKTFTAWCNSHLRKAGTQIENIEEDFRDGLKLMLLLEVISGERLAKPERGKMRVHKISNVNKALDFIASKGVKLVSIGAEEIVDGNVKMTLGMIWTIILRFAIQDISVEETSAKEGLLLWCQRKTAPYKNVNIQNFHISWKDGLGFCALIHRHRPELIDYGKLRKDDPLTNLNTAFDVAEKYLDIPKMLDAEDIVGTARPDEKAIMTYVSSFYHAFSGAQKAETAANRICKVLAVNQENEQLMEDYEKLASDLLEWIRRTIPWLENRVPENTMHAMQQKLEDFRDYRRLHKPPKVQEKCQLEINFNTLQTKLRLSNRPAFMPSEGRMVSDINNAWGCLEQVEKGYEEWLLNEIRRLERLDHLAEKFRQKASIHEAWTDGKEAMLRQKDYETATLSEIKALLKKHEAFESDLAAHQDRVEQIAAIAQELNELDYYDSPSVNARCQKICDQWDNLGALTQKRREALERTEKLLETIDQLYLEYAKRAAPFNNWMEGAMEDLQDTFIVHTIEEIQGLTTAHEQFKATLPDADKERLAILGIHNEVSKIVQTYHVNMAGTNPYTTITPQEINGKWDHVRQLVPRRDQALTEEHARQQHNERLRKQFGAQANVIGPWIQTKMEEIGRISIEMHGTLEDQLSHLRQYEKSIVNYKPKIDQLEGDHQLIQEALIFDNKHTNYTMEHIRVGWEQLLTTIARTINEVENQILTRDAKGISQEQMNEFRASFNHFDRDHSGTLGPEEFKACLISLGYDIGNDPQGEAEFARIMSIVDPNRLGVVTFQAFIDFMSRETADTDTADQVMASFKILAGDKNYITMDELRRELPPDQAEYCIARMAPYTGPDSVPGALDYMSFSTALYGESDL

In the experiment with α-actinin-2 (human), trx-Δ91-FATZ-1 (domain or fragment) yielded a Kd of 1500 nM and a stoichiometry N of 1.3.

Consider “Δ91-FATZ-1 (from UniProt Q9NP98 92-299) (domain or fragment)”, for which the stoichiometry N (Δ91-FATZ-1 per hd-α-actinin-2) in the experiment with hd-α-actinin-2 (human) [1] and with hd-α-actinin-2 (human) [2] was 1 in each case. For the same molecule, the Kd in the experiment with hd-α-actinin-2 (human) [2] worked out at 260 nM.

On to Δ91-FATZ-1-trx (domain or fragment), for which, in the experiment with α-actinin-2 (human), the Kd1 (two-site binding model, first binding event) is 7.8 nM and the Kd2 (two-site binding model, second binding event) amounted to 408 nM.

B1: FATZ-3 (natural protein, human, UniProt Q8TDC0 1-251, looked up)
chain: MIPKEQKGPVMAAMGDLTEPVPTLDLGKKLSVPQDLMMEELSLRNNRGSLLFQKRQRRVQKFTFELAASQRAMLAGSARRKVTGTAESGTVANANGPEGPNYRSELHIFPASPGASLGGPEGAHPAAAPAGCVPSPSALAPGYAEPLKGVPPEKFNHTAISKGYRCPWQEFVSYRDYQSDGRSHTPSPNDYRNFNKTPVPFGGPLVGGTFPRPGTPFIPEPLSGLELLRLRPSFNRVAQGWVRNLPESEEL
On to B1, for which the “stoichiometry N” value with α-actinin-2 [3] is 2 FATZ molecules per α-actinin-2 dimer.

On to PKYKSFNRTAMPYGGYEKASKRMTF (peptide, UniProt Q9NP98 216-240, looked up) [LM2 peptide], for which, in the experiment with α-actinin-2 [4], the dissociation constant (Kd) is 315 nM and the “stoichiometry N” value came out at 1.9.

B2: FATZ-2 (natural protein, human, UniProt Q9NPC6 1-264, looked up)
chain: MLSHNTMMKQRKQQATAIMKEVHGNDVDGMDLGKKVSIPRDIMLEELSHLSNRGARLFKMRQRRSDKYTFENFQYQSRAQINHSIAMQNGKVDGSNLEGGSQQAPLTPPNTPDPRSPPNPDNIAPGYSGPLKEIPPEKFNTTAVPKYYQSPWEQAISNDPELLEALYPKLFKPEGKAELPDYRSFNRVATPFGGFEKASRMVKFKVPDFELLLLTDPRFMSFVNPLSGRRSFNRTPKGWISENIPIVITTEPTDDTTVPESEDL
For the molecule B2, in the experiment with α-actinin-2 [3], the “stoichiometry N” value was 2 FATZ molecules per α-actinin-2 dimer.

B3: ECFP-tagged FATZ-2 (WT) (natural protein, human, UniProt Q9NPC6 1-264, looked up)
chain: B2 chain
On to B3, for which the FRET ratio in experiment [5] turned out to be 0.087.

As for KYKSFNRTAMPYGGY (peptide, UniProt Q9NP98 217-231, looked up) [FATZ-1 peptide comprising residues 217 to 231 (peptide array)], in the experiment with α-actinin-2 [6], the binding result is recorded as “binds”.

B4: FATZ-1 (filamin-, α-actinin-, and telethonin-binding protein of the Z-disk) (natural protein, human, UniProt Q9NP98 1-299, looked up)
chain: MPLSGTPAPNKKRKSSKLIMELTGGGQESSGLNLGKKISVPRDVMLEELSLLTNRGSKMFKLRQMRVEKFIYENHPDVFSDSSMDHFQKFLPTVGGQLGTAGQGFSYSKSNGRGGSQAGGSGSAGQYGSDQQHHLGSGSGAGGTGGPAGQAGRGGAAGTAGVGETGSGDQAGGEGKHITVFKTYISPWERAMGVDPQQKMELGIDLLAYGAKAELPKYKSFNRTAMPYGGYEKASKRMTFQMPKFDLGPLLSEPLVLYNQNLSNRPSFNRTPIPWLSSGEPVDYNVDIGIPLDGETEEL
On to B4, for which, in the experiment with α-actinin-2 [3], the “stoichiometry N” value was 2 FATZ molecules per α-actinin-2 dimer.

B5: ECFP-tagged FATZ-1 (WT FATZ-1) (natural protein, human, UniProt Q9NP98 1-299, looked up)
chain: B4 chain
Consider B5, for which the FRET ratio in experiment [5] worked out at 0.085.

B6: Δ91-FATZ-1 (domain or fragment, human, UniProt Q9NP98 92-299, looked up)
chain: PTVGGQLGTAGQGFSYSKSNGRGGSQAGGSGSAGQYGSDQQHHLGSGSGAGGTGGPAGQAGRGGAAGTAGVGETGSGDQAGGEGKHITVFKTYISPWERAMGVDPQQKMELGIDLLAYGAKAELPKYKSFNRTAMPYGGYEKASKRMTFQMPKFDLGPLLSEPLVLYNQNLSNRPSFNRTPIPWLSSGEPVDYNVDIGIPLDGETEEL
With B6, the “stoichiometry N” value in [7] was 2 Δ91-FATZ-1 per α-actinin-1 (2:1 complex); in the experiment with α-actinin-2 [3], 2 Δ91-FATZ-1 per α-actinin-2 dimer; in the experiment with rod-α-actinin-2, 2 Δ91-FATZ-1 per rod-α-actinin-2 dimer. Besides, the “dH (first binding event)” value with α-actinin-2 [4] was -26.5 kcal/mol.
